# Assay results: paper PMC8945367, “Transcription Regulation of Tceal7 by the Triple Complex of Mef2c, Creb1 and Myod” (Biology, 2022)
# B1: 6×Myc-Mef2c (natural protein)
# chain: not shown
# Molecular target: 3×HA-Creb1 (UniProt Q01147-2 1-327)
# Assay: cell-based or functional assay
# 3×HA-Creb1, sequence (Q01147 whole entry): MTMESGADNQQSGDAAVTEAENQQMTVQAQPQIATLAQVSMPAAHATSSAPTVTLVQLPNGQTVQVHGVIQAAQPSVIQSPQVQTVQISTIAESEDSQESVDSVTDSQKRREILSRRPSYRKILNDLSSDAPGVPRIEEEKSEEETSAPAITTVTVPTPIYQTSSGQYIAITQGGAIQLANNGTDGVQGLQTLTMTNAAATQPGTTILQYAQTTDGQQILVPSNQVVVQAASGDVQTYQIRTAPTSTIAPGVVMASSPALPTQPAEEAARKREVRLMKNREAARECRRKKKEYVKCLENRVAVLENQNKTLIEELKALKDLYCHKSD
binder,measurement,value
B1,transactivation of Reporter II (4×(Mef2#3–CRE#3–E#4) luciferase) by Mef2c and Creb1 together in HEK293T cells; 2.8-fold by Mef2c and 3.7-fold by Creb1 alone,8.3 fold
